From paper PMC2749211

Target: SMU.440, hypothetical protein from Streptococcus mutans (Streptococcus mutans)
Assay: SEC; gel filtration on HiLoad Superdex 75, 20 mM Tris-HCl pH 7.5, 150 mM NaCl

## SMU.440, hypothetical protein from Streptococcus mutans (natural protein)
  stoichiometry N: 2
